Molecular target: the molecule itself
Experiment: western blot of BHK conditioned media, reducing against non-reducing conditions
Experimental: Following selection for stable cell transfectants, media isolated from pools was analyzed by western blot under reducing and non-reducing conditions using a Ztgfβ-9 antibody or an anti-EE epitope tag antibody. […] Under non-reducing conditions, Ztgfβ-9 protein migrated as at 49 kDa species. […] C-terminal EE tagged human Ztgfβ-9 expressed in BHK cells was also anti-EE affinity purified and its N-terminal sequence determined.

B1: Human Ztgfβ-9 protein (ligand)
chain: AGAPRAGRRPARPRGCADRPEELLEQLYGRLAAGVLSAFHHTLQLGPREQARNASCPAGGRPADRRFRPPTNLRSVSPWAYRISYDPARYPRYLPEAYCLCRGCLTGLFGEEDVRFRSAPVYMPTVVLRRTPACAGGRSVYTEAYVTIPVGCTCVPEPEKDADSINSSIDKQGAKLLLGPNDAPAGP
notes: Expressed in BHK cells both with and without a C-terminal Glu-Glu tag; It migrated at 29 kDa reduced and 49 kDa non-reduced, read as a disulfide cross-linked homodimer
- binding result: binds

Reference: patent publication US20040132136A1 (ZymoGenetics, published 2004)
